One experiment concerns the target T1, GARP-proTGFβ1 complex (human, UniProt Q14392 20-627; P01137 30-390, limits assumed).
T1 construct: In the cell assays GARP was overexpressed from a human plasmid (whole, on cells); also called GARP-TGFβ1
Description: Octet, yeast expressed IgG1Agly; concentration not shown.

For experiment [1], the target named is T2, human LTBP1-proTGFβ1 complex (human, UniProt Q14766 347-1721; P01137 30-390).
T2 construct: Complex of presenting molecule LTBP1 disulfide-linked to a proTGFβ1 homodimer; also called proTGFβ1:LTBP1 complex; LTBP1-TGFβ1 complex
T2 sequence (Q14766 347-1721 limits assumed, chain 1 of 2): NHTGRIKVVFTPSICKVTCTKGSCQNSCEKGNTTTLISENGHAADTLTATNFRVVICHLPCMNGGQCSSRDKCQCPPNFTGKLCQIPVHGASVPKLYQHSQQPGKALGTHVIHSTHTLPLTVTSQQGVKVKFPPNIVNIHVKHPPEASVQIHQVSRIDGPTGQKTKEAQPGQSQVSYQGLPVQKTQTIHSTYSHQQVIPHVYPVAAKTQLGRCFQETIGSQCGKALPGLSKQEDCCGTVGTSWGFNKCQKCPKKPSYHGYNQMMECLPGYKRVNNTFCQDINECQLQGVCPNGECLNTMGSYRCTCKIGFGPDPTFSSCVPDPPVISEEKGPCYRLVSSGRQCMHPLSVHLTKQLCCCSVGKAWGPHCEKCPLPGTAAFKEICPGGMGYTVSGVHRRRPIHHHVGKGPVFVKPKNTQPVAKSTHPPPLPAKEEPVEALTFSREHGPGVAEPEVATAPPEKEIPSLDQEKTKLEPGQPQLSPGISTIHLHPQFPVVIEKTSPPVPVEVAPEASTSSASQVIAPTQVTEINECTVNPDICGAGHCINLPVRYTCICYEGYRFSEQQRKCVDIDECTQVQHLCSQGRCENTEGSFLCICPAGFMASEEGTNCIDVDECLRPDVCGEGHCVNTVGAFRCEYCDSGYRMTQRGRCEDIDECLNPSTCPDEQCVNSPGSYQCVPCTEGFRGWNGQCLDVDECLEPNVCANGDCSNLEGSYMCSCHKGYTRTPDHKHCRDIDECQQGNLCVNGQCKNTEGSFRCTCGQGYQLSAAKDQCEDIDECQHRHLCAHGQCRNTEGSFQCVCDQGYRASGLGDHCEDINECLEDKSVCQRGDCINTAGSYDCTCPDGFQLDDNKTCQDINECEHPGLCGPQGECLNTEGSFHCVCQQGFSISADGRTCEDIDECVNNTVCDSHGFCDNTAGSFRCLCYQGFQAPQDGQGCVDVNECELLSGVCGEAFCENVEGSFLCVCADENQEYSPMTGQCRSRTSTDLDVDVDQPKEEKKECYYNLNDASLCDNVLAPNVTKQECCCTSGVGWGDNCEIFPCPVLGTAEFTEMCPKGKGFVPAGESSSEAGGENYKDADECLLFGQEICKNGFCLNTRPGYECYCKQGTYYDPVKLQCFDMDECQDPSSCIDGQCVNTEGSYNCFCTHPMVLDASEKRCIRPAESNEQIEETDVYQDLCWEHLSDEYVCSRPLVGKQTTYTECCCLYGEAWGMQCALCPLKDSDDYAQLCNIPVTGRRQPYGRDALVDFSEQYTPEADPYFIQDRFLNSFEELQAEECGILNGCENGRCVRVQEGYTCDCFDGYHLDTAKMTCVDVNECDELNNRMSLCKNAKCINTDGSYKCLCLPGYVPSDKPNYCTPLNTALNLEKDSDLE
T2 sequence (P01137 30-390 limits assumed, chain 2 of 2): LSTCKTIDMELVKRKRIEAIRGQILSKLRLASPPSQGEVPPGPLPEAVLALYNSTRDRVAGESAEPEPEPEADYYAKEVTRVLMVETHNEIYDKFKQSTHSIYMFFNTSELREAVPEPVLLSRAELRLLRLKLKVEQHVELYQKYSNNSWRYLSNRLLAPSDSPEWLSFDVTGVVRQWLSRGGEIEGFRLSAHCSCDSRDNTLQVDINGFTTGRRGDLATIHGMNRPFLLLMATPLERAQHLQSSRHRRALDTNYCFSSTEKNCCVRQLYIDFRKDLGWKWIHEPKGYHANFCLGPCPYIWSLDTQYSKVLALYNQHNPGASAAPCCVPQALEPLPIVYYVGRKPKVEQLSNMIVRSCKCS
Description: Octet binning: 500 nM complex pre-incubated with 1 µM first antibody SR-AB10; competitor: second antibody SR-AB1 on AHC tip. As to the method: (§1) 500 nM of human LTBP1-proTGFβ1 complex was pre-incubated with 1 μM of each test antibody. After an overnight incubation, the LTBP1-[…] first antibody was tested for binding to a second antibody which was immobilized to an Anti-Human IgG Fc Capture (AHC) sensor tip at 67 nM.
(§2) Binding of the complex to a specific second antibody was normalized to the uninhibited interaction, that is the complex in the presence of HuNeg control antibody. Normalized responses less than 70% or 0.7 of the uninhibited interaction were considered antibodies that cross block.
For orientation: In BLI a coated tip is dipped into the sample, and binding shifts an interference pattern.

Experiment [2] deals with T2, human LTBP1-proTGFβ1 complex. Description: Octet binning: 500 nM complex pre-incubated with 1 µM first antibody SR-AB10; competitor: second antibody SR-AB2 on AHC tip. On the procedure:
as §1, §2

Experiment [3] shares this target. Kind of experiment: Octet binning: 500 nM complex pre-incubated with 1 µM first antibody SR-AB10; competitor: second antibody SR-AB10 on AHC tip. As to the method:
as §1, §2

Experiment [4] has the same target. Kind of experiment: Octet binning: 500 nM complex pre-incubated with 1 µM first antibody SR-AB10; competitor: second antibody SR-AB13 on AHC tip. On the procedure:
as §1, §2

Experiment [5] has the same target. Kind of experiment: Octet binning: 500 nM complex pre-incubated with 1 µM first antibody SR-AB2; competitor: second antibody SR-AB1 on AHC tip. On the procedure:
as §1, §2

Experiment [6] has the same target. Description: Octet binning: 500 nM complex pre-incubated with 1 µM first antibody SR-AB2; competitor: second antibody SR-AB2 on AHC tip. On the procedure: as §1, §2
For experiment [7] the target is unchanged. Kind of experiment: Octet binning: 500 nM complex pre-incubated with 1 µM first antibody SR-AB2; competitor: second antibody SR-AB10 on AHC tip. On the procedure:
as §1, §2

Experiment [8] shares this target. Kind of experiment: Octet binning: 500 nM complex pre-incubated with 1 µM first antibody SR-AB2; competitor: second antibody SR-AB13 on AHC tip. As to the method: as §1, §2
The target is the same in experiment [9]. Description: Octet binning: 500 nM complex pre-incubated with 1 µM first antibody SR-AB13; competitor: second antibody SR-AB1 on AHC tip.
The target is the same in experiment [10]. Description: Octet binning: 500 nM complex pre-incubated with 1 µM first antibody SR-AB13; competitor: second antibody SR-AB2 on AHC tip.
Experiment [11] has the same target. Kind of experiment: Octet binning: 500 nM complex pre-incubated with 1 µM first antibody SR-AB13; competitor: second antibody SR-AB10 on AHC tip.
For experiment [12] the target is unchanged. Description: Octet binning: 500 nM complex pre-incubated with 1 µM first antibody SR-AB13; competitor: second antibody SR-AB13 on AHC tip.

T1 sequence (Q14392 20-627 limits assumed, chain 1 of 2): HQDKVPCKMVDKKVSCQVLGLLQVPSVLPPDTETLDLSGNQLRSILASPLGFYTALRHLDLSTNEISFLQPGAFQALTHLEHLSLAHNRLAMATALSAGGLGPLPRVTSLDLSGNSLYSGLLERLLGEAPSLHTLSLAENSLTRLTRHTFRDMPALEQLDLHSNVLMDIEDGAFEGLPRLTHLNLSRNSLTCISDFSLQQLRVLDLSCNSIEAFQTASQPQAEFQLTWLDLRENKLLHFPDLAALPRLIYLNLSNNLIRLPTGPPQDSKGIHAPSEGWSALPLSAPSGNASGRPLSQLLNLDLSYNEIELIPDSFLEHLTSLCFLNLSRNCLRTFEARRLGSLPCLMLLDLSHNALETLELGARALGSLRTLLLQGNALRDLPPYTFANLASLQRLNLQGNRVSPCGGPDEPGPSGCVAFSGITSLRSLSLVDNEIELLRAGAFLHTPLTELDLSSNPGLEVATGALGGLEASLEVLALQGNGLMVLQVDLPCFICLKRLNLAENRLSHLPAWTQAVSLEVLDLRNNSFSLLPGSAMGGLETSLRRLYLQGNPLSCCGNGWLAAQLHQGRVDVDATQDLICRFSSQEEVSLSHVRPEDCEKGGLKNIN
T1 sequence (P01137 30-390 limits assumed, chain 2 of 2): as the sequence (P01137 30-390 limits assumed, chain 2 of 2) above

B1: SR-AB10 (antibody, V domains shown)
VH: QLQLQESGGGVVQPGRSLRLSCAASGFTFNNYPIHWVRQAPGKGLEWVAVMSYDGINKYYADSVKGRFTISRDNSKNTLYLQMNSLRAEDTAVYYCARPRIAARRGGFDYWGQGTLVTVSS
VL: NFMLTQPHSVSESPGKTVTISCTRSSGNIDNNYVQWYQQRPGSSPTTVIYEDNQRPSGVPDRFSGSIDSSSNSASLTISGLKTEDEADYYCQSYDSDNQGVVFGGGTKLTVL
B1: in the experiment with GARP-proTGFβ1 complex, the binding result is “no binding”. Besides, the “normalized response (relative to HuNeg control)” value was 0.82 fraction of uninhibited interaction in experiment [1], 1.53 fraction of uninhibited interaction in experiment [2], 0.51 fraction of uninhibited interaction in experiment [3] and 1.27 fraction of uninhibited interaction in [4].

B2: SR-AB2 (antibody, V domains shown)
VH: QVQLVQSGAEVKKPGASVKVSCKASGYTFTSYGISWVRQAPGQGLEWMGWISAYNGNTNYAQKLQGRVTMTTDTSTSTAYMELRSLRSDDTAVYYCARAPLGNFDSWGQGTMVTVSS
VL: NFMLTQPHSVSESPGKTVTISCTRSSGSIASNYVQWYQQRPGSSPTTVIYEDNQRPSGVPDRFSGSIDSSSNSASLTISGLKTEDEADYYCQSYDSSNHPVVFGGGTKLTVL
Turning to B2, the “normalized response (relative to HuNeg control)” value in experiment [5] is 1.11 fraction of uninhibited interaction; in [6], 0.47 fraction of uninhibited interaction; in experiment [7] it was 1.54 fraction of uninhibited interaction; in [8], 1.31 fraction of uninhibited interaction.

B3: SR-AB13 (antibody, V domains shown)
VH: QLQLQESGPGLVKPSETLSLTCTVSGGSISSSSYYWGWIRQPPGKGLEWIGSISYSGSTYYNPSLKSRVTISVDTSKNQFSLKLSSVTAADTAVYYCARDPSYDSIAGMDVWGQGTTVTVSS
VL: DIQLTQSPSSLSASVGDRVTITCRASQSISSYLNWYQQKPGKAPKLLIYAASNLQSGVPSRFSGSGSGTDFTLTISSLQPEDFATYYCQQSFDFPFTFGGGTKVEIK
As to B3, the “normalized response (relative to HuNeg control)” value in experiment [9] is 1.08 fraction of uninhibited interaction; in experiment [10], 1.29 fraction of uninhibited interaction; in [11], 1.38 fraction of uninhibited interaction; in [12], 0.47 fraction of uninhibited interaction.

Source of the values: patent publication US20260234272A1 (SCHOLAR ROCK, published 2026).
